Earlier results in PMC1079850.

Target: Tsr (Escherichia coli) (UniProt P02942)
Assay: given as Ka

Sequence of Tsr (Escherichia coli) (P02942 whole entry): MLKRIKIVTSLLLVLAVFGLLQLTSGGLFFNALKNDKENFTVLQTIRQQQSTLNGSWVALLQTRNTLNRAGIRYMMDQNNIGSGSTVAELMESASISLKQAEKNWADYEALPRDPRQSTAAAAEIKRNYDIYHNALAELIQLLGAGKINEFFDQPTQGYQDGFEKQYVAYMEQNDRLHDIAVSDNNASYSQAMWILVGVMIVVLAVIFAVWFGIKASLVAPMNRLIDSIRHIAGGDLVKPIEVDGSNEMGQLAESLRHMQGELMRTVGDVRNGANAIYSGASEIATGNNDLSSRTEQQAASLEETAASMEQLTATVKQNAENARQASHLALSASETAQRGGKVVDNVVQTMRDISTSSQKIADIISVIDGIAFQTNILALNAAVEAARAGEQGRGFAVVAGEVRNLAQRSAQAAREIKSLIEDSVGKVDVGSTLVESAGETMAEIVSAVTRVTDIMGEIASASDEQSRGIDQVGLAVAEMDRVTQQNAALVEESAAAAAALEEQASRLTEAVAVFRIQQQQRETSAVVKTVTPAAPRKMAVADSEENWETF
Sequence of CheR (P07364 whole entry): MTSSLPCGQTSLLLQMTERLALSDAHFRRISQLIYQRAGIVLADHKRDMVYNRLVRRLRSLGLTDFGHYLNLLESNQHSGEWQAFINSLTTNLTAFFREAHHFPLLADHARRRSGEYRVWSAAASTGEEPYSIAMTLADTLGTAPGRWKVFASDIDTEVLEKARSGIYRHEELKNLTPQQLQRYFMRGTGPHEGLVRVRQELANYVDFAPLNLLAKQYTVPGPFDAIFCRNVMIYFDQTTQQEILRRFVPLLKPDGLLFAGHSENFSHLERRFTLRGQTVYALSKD

For CheR (from UniProt P07364), the Kd is given as 2.5 µM.
